Assay results published in patent US8357523B2, “Beta-glucosidase variant enzymes and related polynucleotides” (Codexis, Inc., priority 2009, dated 2013).
Where a chain is given by its changes, count along the chain named.

B1: 180 (protein)
chain: STAIAQEGAAPAAILHPEKWPRPATQRLIDPAVEKRVDALLKQLSVEEKVGQVIQGDIGTITPEDLRKYPLGSILAGGDSGPNGDDRAPPKEWLDLADAFYRVSLEKRPGHTPIPVLFGIDAVHGHGKIGSATIFPHNIALGATRSPELLRRIGEVTAVEMAATGIDWTFAPALSVVRDDRWGRTYEGFSEDPEIVAAYSAAIVEGVQGKFGSKDFMAPGRIVACAKHFLADGGTDQGRDQGDARISEDELIRIHNAGYPPAIDAGVLTVMASFSSWQGIKHHGHKQLLTDVLKGQMGFNGFIVGDWNAHDQVPGCTKFNCPTSLIAGLDMYMAADSWKQLYENTLAQVKDGTIPMARLDDAVRRILRVKVLAGLFEKPAPKDRPGLPGLETLGSPEHRAVGREAVRKSLVLLKNDKGTLPLSPKARVLVAGDGADNIGKQSGGWTISWQGTGNRNDEFPGATSILGGIRDAVADAGGSVEFDVAGQYKTKPDVAIVVFGEEPYAEFQGDVETLEYQPDQKQDLALLKKLKDQGIPVVAVFLSGRPMWVNPELNASDAFVAAWLPGTEGGGVADVLFTDKAGKVQHDFAGKLSYSWPRTAAQTTVNRGDADYNPLFAYGYGLTYKDKSKVGTLPEESGVPAEARQNAGIYFRAGTLRLPGRFL
B2: 183 (protein)
chain: B1 chain with K128N, A162T, A198S, F211Y, I222A, D311G, N320K, R358H, T655A, F662L
B3: 186 (protein)
chain: B1 chain with I134N, S146D, V159Q, T655A
B4: 192 (protein)
chain: B1 chain with D79N, K128N, S146D, C225S, F274A, T655A
B5: 190 (protein)
chain: B1 chain with D79N, K128N, S146D, C225S, F274Q, T655A
B6: 188 (protein)
chain: B1 chain with A162T, A198S, F211Y, C225S, T655A
B7: 184 (protein)
chain: B1 chain with V159Q, A201P, F211Y, P219V, C225S, I280V, T655A
B8: 185 (protein)
chain: B1 chain with D79N, K128N, S146D, V159Q, A198S, F211Y, I222A, P381S, T655A
B9: 194 (protein)
chain: B1 chain with K128N, A143M, S146D, V159E, A198S, C225S, A257P, A485P, T655A
B10: 191 (protein)
chain: B1 chain with D79N, K128N, S146D, C225S, F274A, D436N, T655A
B11: 193 (protein)
chain: B1 chain with D79N, K128N, S146D, C225S, I326S, T655A
B12: 181 (protein)
chain: B1 chain with D79N, A143M, S146D, V159E, F211Y, T655A
B13: 81 (protein)
chain: B1 chain with E18R, P23L, E34K, E47K, P70S, D79N, K128N, S146D, T655A
B14: 182 (protein)
chain: B1 chain with I114T, S146D, V159Q, A173C, A198S, F211Y, P219V, C225S, T655A
B15: 189 (protein)
chain: B1 chain with D79N, K128N, S146D, C225S, F274K, T655A

assay: High throughput cellobiose assay: fold improvement in cellobiase activity of CelA variants over a control enzyme (Tables 2A-2D, 3, 5, 6, 7); format: biochemical; settings: 3.3 g/l cellobiose, 55° C. and pH 6.0

Row | Molecule | Fold improvement over Control Variant No. 5 from Table 2A
1 | B1 | +++ (+++ = 6 to 13 fold improvement over control Variant No. 2)
2 | B2 | ++ (++ = 1.1 to 6 fold improvement over control Variant No. 2)
3 | B3 | +++ (+++ = 6 to 13 fold improvement over control Variant No. 2)
4 | B4 | ++ (++ = 1.1 to 6 fold improvement over control Variant No. 2)
5 | B5 | ++ (++ = 1.1 to 6 fold improvement over control Variant No. 2)
6 | B6 | ++ (++ = 1.1 to 6 fold improvement over control Variant No. 2)
7 | B7 | +++ (+++ = 6 to 13 fold improvement over control Variant No. 2)
8 | B8 | ++ (++ = 1.1 to 6 fold improvement over control Variant No. 2)
9 | B9 | ++ (++ = 1.1 to 6 fold improvement over control Variant No. 2)
10 | B10 | ++ (++ = 1.1 to 6 fold improvement over control Variant No. 2)
11 | B11 | ++ (++ = 1.1 to 6 fold improvement over control Variant No. 2)
12 | B12 | +++ (+++ = 6 to 13 fold improvement over control Variant No. 2)
13 | B13 | ++ (++ = 1.1 to 6 fold improvement over control Variant No. 2)
14 | B14 | ++ (++ = 1.1 to 6 fold improvement over control Variant No. 2)
15 | B15 | ++ (++ = 1.1 to 6 fold improvement over control Variant No. 2)
